Publication PMC5009806 (2016)

Molecular target: amyloid beta monomer (Homo sapiens, UniProt P05067)
Assay: SPR

- Kd: 18 nM
B1: Gantenerumab (antibody, V domains shown)
VH: QVELVESGGGLVQPGGSLRLSCAASGFTFSSYAMSWVRQAPGKGLEWVSAINASGTRTYYADSVKGRFTISRDNSKNTLYLQMNSLRAEDTAVYYCARGKGNTHKPYGYVRYFDVWGQGTLVTVSS
VL: DIVLTQSPATLSLSPGERATLSCRASQSVSSSYLAWYQQKPGQAPRLLIYGASSRATGVPARFSGSGSGTDFTLTISSLEPEDFATYYCLQIYNMPITFGQGTKVEIK
